The results in this text go back to the RNAGym collection of RNA variant scans (doi:10.1093/nar/gkz1192).

The labels stand for the following.
B1: CPEB3 Ribozyme (parent)
chain: UAACAGGGGGCCACAGCAGAAGCGUUCACGUCGCAGCCCCUGUCAGAUUCUGGUGAAUCUGCGAAUUCUGCUGUAUAUCUC

The variants in the data set derive from B1. As to the kind of experiment: self-cleavage, relative activity (ratio to wild type); higher = more cleavage; in vitro, sequencing. The procedure, abridged: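 For each CPEB3 ribozyme variant, relative activity is its cleaved/total read fraction divided by the unmutated ribozyme's. Barcoded error-prone PCR libraries were transcribed by T7 RNA polymerase (5 hours, 37°C) and held in DNase I for 15 min before an EDTA stop, with cleavage occurring throughout. Template-switching reverse transcription and Illumina sequencing were used to read the RNAs. A 5-read minimum applied, and results are the mean of three batches.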
Turning to U60G A65G, the self-cleavage amounted to 0.24.

Consider A64G C79U, for which the self-cleavage was 1.1.

On to A64G C79A, for which the self-cleavage is 0.84.

A64U U72A: the self-cleavage was found to be 0.35.

For A64U U72G, the self-cleavage came out at 0.37.

Take A64U U72C: the self-cleavage stood at 0.5.

Consider C62G U76C, for which the self-cleavage amounted to 0.29.

With G61A U67A, the self-cleavage stood at 0.43.

On to G61A U67C, for which the self-cleavage was 0.36.

For G61A U67G, the self-cleavage amounted to 0.25.

Take G61U U67C: the self-cleavage was 0.21.

Regarding G61U U67G, the self-cleavage worked out at 0.23.

Turning to C62A U78C, the self-cleavage came out at 0.16.

Turning to C62A U78A, the self-cleavage came out at 0.16.

On to G61C U72C, for which the self-cleavage came to 0.34.

Take G61C U80C: the self-cleavage is 0.5.

For the variant C62U U76C, the self-cleavage was 0.33.

As for C62U U76A, the self-cleavage stood at 0.25.

Consider A65C U74C, for which the self-cleavage was determined as 0.3.

With A64G G73U, the self-cleavage came out at 1.35.

On to A64G G73A, for which the self-cleavage came out at 1.24.

Consider G61A U69C, for which the self-cleavage is 0.53.

In the case of G61A U69A, the self-cleavage came out at 0.4.

Take C62G U80A: the self-cleavage came to 0.25.

On to G63U U69A, for which the self-cleavage stood at 0.57.

On to A64C U66C, for which the self-cleavage came to 0.24.

As for G63C U72A, the self-cleavage stood at 0.4.

With G63C U72C, the self-cleavage amounted to 1.14.

For the variant A64G C68A, the self-cleavage came to 0.2.

In the case of G61A A77U, the self-cleavage stood at 0.98.

As for G61A A77G, the self-cleavage turned out to be 0.8.

Take G63U A77G: the self-cleavage was found to be 1.24.

Regarding U60G U69C, the self-cleavage was 0.23.

As to U60G U69A, the self-cleavage turned out to be 0.39.

G63U C81U: the self-cleavage stood at 0.99.

Take C62G A64C: the self-cleavage worked out at 0.19.

As for C62G A64G, the self-cleavage was 0.22.

For the variant C62G A64U, the self-cleavage is 0.32.

For C62A A64G, the self-cleavage amounted to 0.25.

In the case of G61U A64U, the self-cleavage came out at 0.23.

As for G63A G73A, the self-cleavage turned out to be 1.34.

Take C62G C71U: the self-cleavage was 0.38.

As for G63A U76A, the self-cleavage stood at 0.82.

As to G61A G63A, the self-cleavage amounted to 0.84.

Turning to G63C C79A, the self-cleavage stood at 1.09.

Take G61C U74A: the self-cleavage worked out at 0.88.

On to G61C U74C, for which the self-cleavage came out at 0.23.

Turning to A64G U76C, the self-cleavage was found to be 0.94.

On to A64G U76A, for which the self-cleavage was found to be 0.95.

As for C62U U67A, the self-cleavage is 0.29.

Consider C62U U67C, for which the self-cleavage worked out at 0.31.

Turning to G61A A65G, the self-cleavage is 0.39.

G63U A75G: the self-cleavage stood at 1.14.

For G63U A75U, the self-cleavage came to 1.2.

As to C62U C79G, the self-cleavage was found to be 0.2.

C62U G73A: the self-cleavage was determined as 0.16.

Turning to C62U G73U, the self-cleavage amounted to 0.21.

As to C62A G63A, the self-cleavage came out at 0.25.

Turning to G61U U74C, the self-cleavage was 1.19.

With G61A G70U, the self-cleavage is 0.12.

Regarding G63C U78A, the self-cleavage was 1.01.

Consider A64G A77U, for which the self-cleavage is 1.03.

As for A64G A77G, the self-cleavage stood at 0.84.

Regarding U60G C71U, the self-cleavage turned out to be 0.2.

With C62U A77U, the self-cleavage worked out at 0.17.

Regarding C62U A77C, the self-cleavage came to 0.19.

With C62U A77G, the self-cleavage was 0.15.

G63A U69A: the self-cleavage amounted to 0.5.

As for G63A U69C, the self-cleavage was determined as 0.61.

Take A64C U67A: the self-cleavage was determined as 0.19.

As for A64C U67C, the self-cleavage is 0.2.

With C62U C68U, the self-cleavage worked out at 0.21.

Take A65C A77G: the self-cleavage came to 0.19.

On to G63A C68U, for which the self-cleavage stood at 0.96.

Regarding A64G A75U, the self-cleavage is 1.01.

In the case of A64G A75G, the self-cleavage turned out to be 0.71.

A64G A75C: the self-cleavage came to 1.06.

A64U C71A: the self-cleavage worked out at 0.18.

As for C62A U80A, the self-cleavage was 0.1.

With C62A U80C, the self-cleavage stood at 0.34.

For G61A C62U, the self-cleavage worked out at 0.17.

Consider C62U U80C, for which the self-cleavage was determined as 0.28.

For the variant C62U U80A, the self-cleavage turned out to be 0.3.

Regarding G63U U78C, the self-cleavage was 0.96.

Consider G63U U78A, for which the self-cleavage amounted to 0.98.

For the variant A64U U74C, the self-cleavage came to 0.6.

For the variant A64U U74A, the self-cleavage turned out to be 0.51.

Turning to A64U G70U, the self-cleavage turned out to be 0.26.

Take A64U G70C: the self-cleavage amounted to 0.25.

In the case of A64U G70A, the self-cleavage was found to be 0.21.

Turning to G63A A77G, the self-cleavage is 0.74.

Take G63A A77U: the self-cleavage turned out to be 0.99.

For the variant A64G U80A, the self-cleavage was 1.03.

For A64G U80G, the self-cleavage came to 0.67.

Consider A64G U80C, for which the self-cleavage came out at 0.95.

On to C62A G73A, for which the self-cleavage worked out at 0.24.

On to U60G G70A, for which the self-cleavage was determined as 0.21.

As for A64G C81U, the self-cleavage was determined as 0.91.

As for A64G C81A, the self-cleavage was 1.02.

For A64G C81G, the self-cleavage came to 1.03.

With G63A U72A, the self-cleavage is 0.59.

In the case of G63A U72G, the self-cleavage was determined as 0.84.

With G63A U72C, the self-cleavage amounted to 0.91.

With G61A, the self-cleavage turned out to be 0.75.

Turning to G61U, the self-cleavage amounted to 0.6.

As for G61C, the self-cleavage turned out to be 0.34.

On to A64G U69G, for which the self-cleavage is 0.44.

As for A64G U69C, the self-cleavage came to 0.41.

A64G U69A: the self-cleavage was determined as 0.38.

For G63C U67A, the self-cleavage was found to be 0.25.

Consider G63C U67C, for which the self-cleavage amounted to 0.31.

With C62U U78A, the self-cleavage was 0.28.

For C62U U78C, the self-cleavage turned out to be 0.2.

For the variant U60G U78C, the self-cleavage turned out to be 0.17.

Consider U60G U78A, for which the self-cleavage was determined as 0.36.

For A64U C68A, the self-cleavage came to 0.37.

G61A U80G: the self-cleavage turned out to be 1.

For the variant G61A U80C, the self-cleavage is 0.9.

In the case of G61A U80A, the self-cleavage stood at 0.91.

Regarding A64U U80C, the self-cleavage stood at 0.45.

For A64U U80A, the self-cleavage was 0.37.

A64G C71G: the self-cleavage was determined as 0.31.

As for A64G C71U, the self-cleavage amounted to 0.34.

C62A A75G: the self-cleavage stood at 0.12.

As for A64C A77G, the self-cleavage is 0.17.

As to A64C A77U, the self-cleavage was 0.25.

On to C62U C71U, for which the self-cleavage turned out to be 0.22.

As for C62U C71A, the self-cleavage was 0.26.

For the variant A64U A75U, the self-cleavage came to 0.45.

On to A64U A75G, for which the self-cleavage was 0.35.

On to A64U A75C, for which the self-cleavage worked out at 0.5.

As to G63A U66A, the self-cleavage amounted to 0.4.

In the case of G63A U66C, the self-cleavage came out at 0.45.

For G61A U76C, the self-cleavage stood at 0.88.

In the case of A64G U72C, the self-cleavage turned out to be 0.91.

Regarding A64G U72A, the self-cleavage is 0.67.

A64G U72G: the self-cleavage was found to be 0.87.

Take A64G U66A: the self-cleavage came to 0.32.

For the variant A64G U66C, the self-cleavage turned out to be 0.34.

C62G U69C: the self-cleavage was determined as 0.22.

Consider C62G U69A, for which the self-cleavage is 0.15.

In the case of G63U U66C, the self-cleavage worked out at 0.42.

For C62U A65G, the self-cleavage amounted to 0.27.

As to C62U A65U, the self-cleavage is 0.14.

Consider A65C C79G, for which the self-cleavage worked out at 0.14.

Take C62G U72C: the self-cleavage was determined as 0.26.

For C62G U72A, the self-cleavage was 0.27.

Regarding C62U A64U, the self-cleavage was determined as 0.29.

As to C62U A64G, the self-cleavage came out at 0.19.

Regarding G61A U66C, the self-cleavage turned out to be 0.39.

With G61C C62U, the self-cleavage came out at 0.22.

For the variant C62G A77U, the self-cleavage turned out to be 0.19.

In the case of G63A A64U, the self-cleavage was determined as 0.54.

G63A A64C: the self-cleavage is 0.42.

G63A A64G: the self-cleavage is 0.6.

Take G61A U74C: the self-cleavage was 1.12.

Regarding G63U U80C, the self-cleavage was determined as 1.11.

For G63U U80A, the self-cleavage worked out at 0.98.

G63C U74C: the self-cleavage was 1.21.

Regarding A64G U67A, the self-cleavage was 0.38.

For the variant A64G U67C, the self-cleavage worked out at 0.25.

As for A64G U67G, the self-cleavage worked out at 0.44.

On to A64C U80C, for which the self-cleavage is 0.38.

As to U60C U78A, the self-cleavage was determined as 0.55.

For the variant U60C U78C, the self-cleavage was found to be 0.45.

Regarding G61C A64G, the self-cleavage worked out at 0.19.

In the case of G61C A64U, the self-cleavage is 0.32.
